The values below are quoted from earlier work in publication PMC2734106.

Usually Kd stands for the equilibrium constant for the complex coming apart.

Series [1] has as its target ubiquitin (Homo sapiens) (UniProt P0CG47).
The target of series [2] is K48-linked tetraubiquitin (Homo sapiens) (UniProt P0CG47).

Chain of USP5 (P45974 2-858): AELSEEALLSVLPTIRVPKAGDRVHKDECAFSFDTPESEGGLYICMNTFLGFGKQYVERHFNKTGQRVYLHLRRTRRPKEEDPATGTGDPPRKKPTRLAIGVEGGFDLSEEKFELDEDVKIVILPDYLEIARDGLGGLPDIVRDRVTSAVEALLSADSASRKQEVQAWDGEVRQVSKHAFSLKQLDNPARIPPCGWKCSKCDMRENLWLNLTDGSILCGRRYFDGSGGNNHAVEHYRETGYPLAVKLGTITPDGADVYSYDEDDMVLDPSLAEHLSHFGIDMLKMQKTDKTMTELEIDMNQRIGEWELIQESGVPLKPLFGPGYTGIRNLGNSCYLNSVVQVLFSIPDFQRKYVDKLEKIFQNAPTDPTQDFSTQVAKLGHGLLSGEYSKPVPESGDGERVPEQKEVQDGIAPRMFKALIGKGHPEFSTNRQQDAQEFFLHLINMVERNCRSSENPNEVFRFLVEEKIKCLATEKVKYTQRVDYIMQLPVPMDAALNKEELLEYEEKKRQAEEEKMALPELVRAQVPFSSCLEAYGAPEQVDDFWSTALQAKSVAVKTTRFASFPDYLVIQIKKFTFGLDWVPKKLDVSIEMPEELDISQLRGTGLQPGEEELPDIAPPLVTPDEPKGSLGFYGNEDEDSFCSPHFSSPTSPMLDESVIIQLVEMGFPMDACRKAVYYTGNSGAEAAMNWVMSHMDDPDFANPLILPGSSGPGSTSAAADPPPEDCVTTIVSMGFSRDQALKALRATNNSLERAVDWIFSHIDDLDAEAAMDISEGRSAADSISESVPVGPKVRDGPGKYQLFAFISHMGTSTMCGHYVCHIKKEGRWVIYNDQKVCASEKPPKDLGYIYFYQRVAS

For USP5 (from UniProt P45974), the Kd is 50 nM in series [1] and under 1 nM in series [2].
